Experimental data taken from patent US20230039279.

Columns and labels:
[1] = tested on: MMP-9 sensitive peptide (GPRSLSG-RRCG) linked ibuprofen
[2] = tested on: non-cleavable scrambled peptide GCRR-KSSRGGPLK-RRCG
[3] = tested on: peptide (4)
[4] = tested on: peptide (2)
[5] = tested on: MMP-9 peptide substrate M2, GRCR-GPRSLSG-RCRG
[6] = tested on: ibu-GPQGIWGQ-DRCG
[7] = tested on: peptide (5)
[8] = tested on: peptide (7)
[9] = tested on: peptide (6)
[10] = tested on: peptide (3), crosslinker based on substrate AVRWLLTA
[11] = tested on: cleavable peptide (1) GCRR-KGPRSLSGK-RRCG

Chain of matrix-metalloprotease-9 (MMP-9), 83 kDa, Merck (chain, as listed by the source): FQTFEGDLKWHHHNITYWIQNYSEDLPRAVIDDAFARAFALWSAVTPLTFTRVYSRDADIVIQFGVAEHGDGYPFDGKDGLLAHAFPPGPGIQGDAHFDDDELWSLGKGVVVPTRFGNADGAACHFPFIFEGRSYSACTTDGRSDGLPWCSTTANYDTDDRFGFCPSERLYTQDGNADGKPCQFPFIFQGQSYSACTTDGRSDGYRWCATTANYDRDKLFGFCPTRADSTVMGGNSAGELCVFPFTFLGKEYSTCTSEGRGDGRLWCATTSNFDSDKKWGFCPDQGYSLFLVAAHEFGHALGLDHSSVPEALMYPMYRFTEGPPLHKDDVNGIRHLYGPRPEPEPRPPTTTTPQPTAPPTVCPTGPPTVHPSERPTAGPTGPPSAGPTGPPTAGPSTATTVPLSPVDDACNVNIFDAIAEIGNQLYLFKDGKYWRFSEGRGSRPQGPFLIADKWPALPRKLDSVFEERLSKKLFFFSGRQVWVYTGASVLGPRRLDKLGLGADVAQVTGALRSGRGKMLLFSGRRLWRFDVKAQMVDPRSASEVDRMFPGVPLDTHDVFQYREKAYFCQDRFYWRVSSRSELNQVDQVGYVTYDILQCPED

| Substance | specificity of protease-triggered ibuprofen liberation (FIG. 10B) [1] | cumulative drug release from scrGEL-iP after 4 hours with 3 µg/ml MMP-9 [2] | ultimate cumulative drug release at 48 hours from the dual-responsive conjugate hydrogel, MMP-9 alone (2 µg/ml) [1] | cleavability of hybrid hydrogel (release of PLGA particles into the medium after 20 h with 3 µg/ml MMP-9) [3] | cleavability of hybrid hydrogel (release of PLGA particles into the medium after 20 h with 3 µg/ml MMP-9) [4] | degradation of H2-M2 combinational hydrogel and release of PLGA particles over 24 hours [5] | LC-MS detection of the liberated fragment in the supernatant after 2 days of hydrogel exposure to MMP9 solution [6] | cleavability of hybrid hydrogel (release of PLGA particles into the medium after 20 h with 3 µg/ml MMP-9) [7] | cleavability of hybrid hydrogel (release of PLGA particles into the medium after 20 h with 3 µg/ml MMP-9) [8] | cleavability of hybrid hydrogel (release of PLGA particles into the medium after 20 h with 3 µg/ml MMP-9) [9] | cleavability of hybrid hydrogel (release of PLGA particles into the medium after 20 h with 3 µg/ml MMP-9) [10] | cleavability of hybrid hydrogel (release of PLGA particles into the medium after 20 h with 3 µg/ml MMP-9) [11] | cumulative drug release from GEL-iP after 4 hours with 3 µg/ml MMP-9 [11] |
| --- | --- | --- | --- | --- | --- | --- | --- | --- | --- | --- | --- | --- | --- |
| cathepsin B | the peptide sequence, GPRSLSGRRCG (SEQ ID NO: 20), as a spacer illustrated a good specificity toward MMP-9 compared to cathepsin B and human neutrophil elastase (HNE) | – | – | – | – | – | – | – | – | – | – | – | – |
| matrix-metalloprotease-9 (MMP-9), 83 kDa, Merck | the peptide sequence, GPRSLSGRRCG (SEQ ID NO: 20), as a spacer illustrated a good specificity toward MMP-9 compared to cathepsin B and human neutrophil elastase (HNE) | only 40% was released from the hybrid hydrogel crosslinked by the scrambled peptide (scrGEL-iP) at the same condition | the ultimate cumulative release achieved 71% | hybrid hydrogels crosslinked with peptides (1), (4), (5) and (7) could be digested by MMP-9 | hydrogels formed with peptides (2), (3), and (6) were not cleaved upon exposure to MMP-9 | H2 and M2 peptide substrates were preferentially cleaved by HNE and MMP-9 proteases respectively | LC-MS analysis confirmed the presence of the liberated ibuprofen bearing fragment (ibu-GPQG, LC peak at elution time of 14.6 min, MS peak at m/z=546.20) | hybrid hydrogels crosslinked with peptides (1), (4), (5) and (7) could be digested by MMP-9 | hybrid hydrogels crosslinked with peptides (1), (4), (5) and (7) could be digested by MMP-9 | hydrogels formed with peptides (2), (3), and (6) were not cleaved upon exposure to MMP-9 | hydrogels formed with peptides (2), (3), and (6) were not cleaved upon exposure to MMP-9 | hybrid hydrogels crosslinked with peptides (1), (4), (5) and (7) could be digested by MMP-9 | exposing GEL-iP to MMP-9 for 4 hours significantly boosted the cumulative drug release to 100% compared to only 25% in the absence of MMP-9 |
